Reference: patent US20100015637A1 (AbbVie / Abbott, published 2010)

Columns and labels:
[1] = target: human PlGF-1 fragment (comprising amino acids 17-131) produced in human embryonic kidney cells (human) (UniProt P49763); assay: … sandwich, capture MAb264, detection pAb264; antigen 60 pg/mL
[2] = target: CHO human PlGF-1 fragment (comprising amino acids 17-131; ATCC PTA-8540) (human) (UniProt P49763); assay: as above
[3] = target: CHO human PlGF-1 comprising amino acids 1-137 (human PlGF-1-His (1-131), CHO 6305) (human) (UniProt P49763); assay: as above
[4] = target: human PlGF-1 comprising amino acids 1-137 produced in human embryonic kidney cells (human) (UniProt P49763); assay: as above
[5] = target: recombinant human PlGF-1 (comprising amino acids 1-131) expressed in E. coli (R&D Systems) (human) (UniProt P49763); assay: as above
[6] = target: human PlGF-1 fragment (comprising amino acids 17-131) produced in human embryonic kidney cells (human) (UniProt P49763); assay: … sandwich, capture MAb264, detection pAb264; antigen 250 pg/mL
[7] = target: CHO human PlGF-1 fragment (comprising amino acids 17-131; ATCC PTA-8540) (human) (UniProt P49763); assay: as above
[8] = target: CHO human PlGF-1 comprising amino acids 1-137 (human PlGF-1-His (1-131), CHO 6305) (human) (UniProt P49763); assay: as above
[9] = target: human PlGF-1 comprising amino acids 1-137 produced in human embryonic kidney cells (human) (UniProt P49763); assay: as above
[10] = target: recombinant human PlGF-1 (comprising amino acids 1-131) expressed in E. coli (R&D Systems) (human) (UniProt P49763); assay: as above
[11] = target: human PlGF-1 fragment (comprising amino acids 17-131) produced in human embryonic kidney cells (human) (UniProt P49763); assay: … sandwich, capture MAb264, detection pAb264; antigen 1500 pg/mL
[12] = target: CHO human PlGF-1 fragment (comprising amino acids 17-131; ATCC PTA-8540) (human) (UniProt P49763); assay: as above
[13] = target: CHO human PlGF-1 comprising amino acids 1-137 (human PlGF-1-His (1-131), CHO 6305) (human) (UniProt P49763); assay: as above
[14] = target: human PlGF-1 comprising amino acids 1-137 produced in human embryonic kidney cells (human) (UniProt P49763); assay: as above
[15] = target: recombinant human PlGF-1 (comprising amino acids 1-131) expressed in E. coli (R&D Systems) (human) (UniProt P49763); assay: as above
[16] = target: human PlGF-1 fragment (comprising amino acids 17-131) produced in human embryonic kidney cells (human) (UniProt P49763); assay: … sandwich, capture MAb264, detection pAb264; antigen 0 pg/mL (blank)
[17] = target: CHO human PlGF-1 fragment (comprising amino acids 17-131; ATCC PTA-8540) (human) (UniProt P49763); assay: as above
[18] = target: CHO human PlGF-1 comprising amino acids 1-137 (human PlGF-1-His (1-131), CHO 6305) (human) (UniProt P49763); assay: as above
[19] = target: human PlGF-1 comprising amino acids 1-137 produced in human embryonic kidney cells (human) (UniProt P49763); assay: as above
[20] = target: recombinant human PlGF-1 (comprising amino acids 1-131) expressed in E. coli (R&D Systems) (human) (UniProt P49763); assay: as above
[21] = target: human PlGF-1 fragment (comprising amino acids 17-131) produced in human embryonic kidney cells (human) (UniProt P49763); assay: … sandwich, capture MAb264, detection pAb264; antigen 750 pg/mL
[22] = target: CHO human PlGF-1 fragment (comprising amino acids 17-131; ATCC PTA-8540) (human) (UniProt P49763); assay: as above
[23] = target: CHO human PlGF-1 comprising amino acids 1-137 (human PlGF-1-His (1-131), CHO 6305) (human) (UniProt P49763); assay: as above
[24] = target: human PlGF-1 comprising amino acids 1-137 produced in human embryonic kidney cells (human) (UniProt P49763); assay: as above
[25] = target: recombinant human PlGF-1 (comprising amino acids 1-131) expressed in E. coli (R&D Systems) (human) (UniProt P49763); assay: as above
[26] = target: human PlGF-1 fragment (comprising amino acids 17-131) produced in human embryonic kidney cells (human) (UniProt P49763); assay: … sandwich, capture MAb264, detection pAb264; antigen 15 pg/mL
[27] = target: CHO human PlGF-1 fragment (comprising amino acids 17-131; ATCC PTA-8540) (human) (UniProt P49763); assay: as above
[28] = target: CHO human PlGF-1 comprising amino acids 1-137 (human PlGF-1-His (1-131), CHO 6305) (human) (UniProt P49763); assay: as above
[29] = target: human PlGF-1 comprising amino acids 1-137 produced in human embryonic kidney cells (human) (UniProt P49763); assay: as above
[30] = target: recombinant human PlGF-1 (comprising amino acids 1-131) expressed in E. coli (R&D Systems) (human) (UniProt P49763); assay: as above
[31] = target: T1, CHO human PlGF-1 comprising amino acids 1-137 (human PlGF-1-His (1-131), CHO 6305) (human, UniProt P49763 19-221, N-glycans at N21 (completely glycosylated) and N89 (partially glycosylated)); assay: sandwich chemiluminescent EIA, 1-255-713 coated, acridinium 2-826-335 Fab'2 detection
T1 construct: Mature human PlGF-1 with 6xHis tag (137 amino acids); also called CHO (1-137)
T1 sequence: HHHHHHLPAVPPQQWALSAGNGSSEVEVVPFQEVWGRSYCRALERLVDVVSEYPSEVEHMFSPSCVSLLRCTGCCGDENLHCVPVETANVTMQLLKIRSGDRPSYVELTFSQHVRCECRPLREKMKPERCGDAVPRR
Protocol: After the capture reagent had been coated on the solid phase, it was removed and any unoccupied binding sites remaining on the plates were blocked using a 2% Fish Gel solution in PBS. The plates were washed and log 2 serial dilutions of recombinant antigen (rAg) lots, starting at 10,000 pg/mL in research phase […]® Human PlGF-1 calibrator diluent (which comprises a buffer containing MES, other salt, a protein blocker and an antimicrobial; Abbott Laboratories, Abbott Park, Ill.), were added to the plate for a one-hour incubation. Purified human PlGF-1 rAg (R&D Systems Minneapolis, Minn.) that was produced in E. coli was used as a positive control and purified NGAL) rAg was used as a negative control in this assay. […] Luminescence counts per second (LCPS) were measured on a Microbeta Jet instrument (Perkin Elmer, Waltham Mass.). The plate was loaded in the instrument where 100 μl of Architect Pre-trigger Solution (Abbott Laboratories, Abbott Park, Ill.) is added to each well, followed by 100 ul of Architect Trigger Solution is added before flash chemiluminescence is read and recorded. A calibration curve was generated with each rAg and recorded in the following graph.

Molecule: monoclonal antibody 264 (mouse anti-human PlGF-1, Clone 37203, R&D Systems Catalog Number MAB264)
- RLU [1]: 23500 RLU
- RLU [2]: 14800 RLU
- RLU [3]: 13800 RLU
- RLU [4]: 31300 RLU
- RLU [5]: 55000 RLU
- RLU [6]: 77900 RLU
- RLU [7]: 46000 RLU
- RLU [8]: 38900 RLU
- RLU [9]: 109000 RLU
- RLU [10]: 196000 RLU
- RLU [11]: 403000 RLU
- RLU [12]: 223000 RLU
- RLU [13]: 201000 RLU
- RLU [14]: 507000 RLU
- RLU [15]: 937000 RLU
- RLU [16]: 4880 RLU
- RLU [17]: 4680 RLU
- RLU [18]: 4650 RLU
- RLU [19]: 4750 RLU
- RLU [20]: 5110 RLU
- RLU [21]: 206000 RLU
- RLU [22]: 120000 RLU
- RLU [23]: 106000 RLU
- RLU [24]: 277000 RLU
- RLU [25]: 352000 RLU
- RLU [26]: 8590 RLU
- RLU [27]: 6870 RLU
- RLU [28]: 6370 RLU
- RLU [29]: 10400 RLU
- RLU [30]: 15600 RLU

B1: acridinium labeled Fab'2 fragment of human PlGF-1 antibody 2-826-335 (other)
VH: QVQLKQSGPGLVQPSQSLSITCTVSGFSLTTYGIHWVRQSPGKGLEWLGVMWSGGDTDYDAAFISRLSISKDNSKSQVFFKMNSLQANDTGIYYCARYRFYGMDYWGQGTSVTVSS
VL: AIQMTQSSSSFSVSLGDRVTITCKASEDIYNRFAWYQQKPGNAPRLLISGAASLEAGVPSRFSGSGSGQDYTLSITSLQTEDVATYYCQQYWSTPWTFGGGTKLEIKR
modifications: acridinium labeled
- binding result [31]: binds
